The source of these data is publication PMC5646241, “Copper Chaperone CupA and Zinc Control CopY Regulation of the Pneumococcal cop Operon”.

Series [1] deals with CopY, repressor of the Streptococcus pneumoniae cop operon (Streptococcus pneumoniae TIGR4). Put plainly: SEC-MALS; WTC-010S5 column, 50 mM Tris-HCl pH 7.5, 100 mM NaCl, 5% glycerol, with 100 µM zinc, 25°C. On the technique in general: In gel filtration, larger molecules generally elute earlier.
The target is the same in series [2]. Put plainly: SEC-MALS; WTC-010S5 column, 50 mM Tris-HCl pH 7.5, 100 mM NaCl, 5% glycerol, without zinc (apo CopY), 25°C.
The target of a further series is CopY, zinc-bound (Streptococcus pneumoniae TIGR4, UniProt A0ACD7PQP7 1-131). Put plainly: fluorescence polarization; 10 uM Zn2+; FP: 50 mM Tris-HCl pH 7.5, 100 mM NaCl, 5% glycerol, Chelex-treated, 10 nM DNA, temperature not stated; EMSA: TBS, 20 ul, 4 C, 50 uM CopY, 50 ng DNA, 6% TBE gel, 0.5x TB running buffer without EDTA. The settings on record: protein: recombinant; tags: pMCSG7 vector construct (tag not given); chain copies: 4; label: FAM on strand 1; blunt.

In series [3] the target is T1, CopY (copper-responsive cop operon repressor) (Streptococcus pneumoniae TIGR4, UniProt A0ACD7PQP7 1-131). Put plainly: fluorescence polarization; apo, no metal; FP: 50 mM Tris-HCl pH 7.5, 100 mM NaCl, 5% glycerol, Chelex-treated, 10 nM DNA, temperature not stated; EMSA: TBS, 20 ul, 4 C, 50 uM CopY, 50 ng DNA, 6% TBE gel, 0.5x TB running buffer without EDTA. As to conditions: protein: recombinant; tags: pMCSG7 vector construct (tag not given); chain copies: 2; label: FAM on strand 1; blunt. In general terms: Polarisation of emitted light reports the rotation of a fluorescent probe.

For series [4], the target named is T1, CopY (copper-responsive cop operon …). Put plainly: fluorescence polarization; apo; described as nonspecific binding, linear; FP: 50 mM Tris-HCl pH 7.5, 100 mM NaCl, 5% glycerol, Chelex-treated, 10 nM DNA, temperature not stated; EMSA: TBS, 20 ul, 4 C, 50 uM CopY, 50 ng DNA, 6% TBE gel, 0.5x TB running buffer without EDTA. The settings on record: protein: recombinant; tags: pMCSG7 vector construct (tag not given); chain copies: 2; label: FAM on strand 1; blunt.

For series [5] the target is unchanged. Put plainly: EMSA; no metal; 50 uM CopY; FP: 50 mM Tris-HCl pH 7.5, 100 mM NaCl, 5% glycerol, Chelex-treated, 10 nM DNA, temperature not stated; EMSA: TBS, 20 ul, 4 C, 50 uM CopY, 50 ng DNA, 6% TBE gel, 0.5x TB running buffer without EDTA. The settings on record: protein: recombinant; tags: pMCSG7 vector construct (tag not given); chain copies: 2; label: 3' biotin on strand 1; blunt.

The term stoichiometry N denotes the number of molecules, sites or subunits per partner or assembly. The Kd is the free concentration of one partner at which half of the binding sites on the other are occupied at equilibrium, for simple one-to-one binding.

As to “CopY, repressor of the Streptococcus pneumoniae cop operon (natural protein)”, the stoichiometry N in series [1] turned out to be 4; in series [2], 2.

B1: pSP_0727 cop promoter, FAM (dsDNA)
DNA 1: TCTATAATTGACAAATGTAGATTTTAAGAGTATACTGATGAGTGTAATTGACAAATG
DNA 2: CATTTGTCAATTACACTCATCAGTATACTCTTAAAATCTACATTTGTCAATTATAGA
Turning to B1, the Kd in the series with CopY, zinc-bound stood at 0.52 ± 0.13 µM; in series [3] it was 4.24 ± 0.78 µM.

B2: pSP_1541 promoter, FAM (dsDNA)
DNA 1: GCGAACCTCACTTACCCCTTGCAAAGTCTTGGGGTCATTAGA
DNA 2: TCTAATGACCCCAAGACTTTGCAAGGGGTAAGTGAGGTTCGC
In the case of B2, in series [4], the binding result is given as “no binding”.

B3: pSP_1541 promoter, biotinylated (dsDNA)
DNA 1: GCGAACCTCACTTACCCCTTGCAAAGTCTTGGGGTCATTAGA
DNA 2: TCTAATGACCCCAAGACTTTGCAAGGGGTAAGTGAGGTTCGC
Turning to B3, in series [5], the binding result is reported as “no binding”.
